Measured values: paper PMC3706463, “The Asymmetric Binding of PGC-1α to the ERRα and ERRγ Nuclear Receptor Homodimers Involves a Similar Recognition Mechanism” (PLoS ONE, 2013)
Several values for one entry are separate records, joined by “and”; a condition that tells them apart may be missing. Equal values may be shown once. Values belong to the molecule of their own block, whether it stands above or below them.

T1: ERRα LBD (ERRα-189-423) homodimer (UniProt P11474 189-423)
T1 construct: The His6-tag of ERR was cleaved with thrombin for SAXS and left on ERRα for ESI-MS; nothing is said for ITC and native PAGE; also called ERR LBD; source: E. coli BL21 (DE3), purified (HisTrap, SEC)
T1 sequence (looked up): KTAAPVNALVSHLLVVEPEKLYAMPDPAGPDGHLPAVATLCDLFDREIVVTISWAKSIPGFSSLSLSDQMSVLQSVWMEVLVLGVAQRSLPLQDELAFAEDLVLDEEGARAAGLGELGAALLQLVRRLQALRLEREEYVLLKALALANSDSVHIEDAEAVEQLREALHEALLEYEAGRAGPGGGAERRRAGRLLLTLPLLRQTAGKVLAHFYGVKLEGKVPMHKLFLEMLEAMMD

T2: ERRγ LBD (ERRγ 229-458) homodimer (UniProt P62508 229-458)
T2 construct: Cloned in pET15b; The His6-tag of ERR was cleaved with thrombin for SAXS; nothing is said for ITC and native PAGE; also called ERR LBD; source: E. coli BL21 (DE3), purified (HisTrap, SEC)
T2 sequence (looked up): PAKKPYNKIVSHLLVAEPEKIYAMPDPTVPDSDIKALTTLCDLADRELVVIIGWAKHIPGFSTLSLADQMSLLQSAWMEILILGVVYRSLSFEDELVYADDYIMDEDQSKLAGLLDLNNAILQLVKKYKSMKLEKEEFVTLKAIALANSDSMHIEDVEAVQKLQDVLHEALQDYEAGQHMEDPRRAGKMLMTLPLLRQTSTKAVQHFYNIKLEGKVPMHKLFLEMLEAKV

T3: PGC-1α NTD (1–285) (human, UniProt Q9UBK2 1-285)
T3 construct: PGC-1α, human, residues 1-285, holds motifs L2 and L3; source: cloned in pET24b
T3 sequence (looked up): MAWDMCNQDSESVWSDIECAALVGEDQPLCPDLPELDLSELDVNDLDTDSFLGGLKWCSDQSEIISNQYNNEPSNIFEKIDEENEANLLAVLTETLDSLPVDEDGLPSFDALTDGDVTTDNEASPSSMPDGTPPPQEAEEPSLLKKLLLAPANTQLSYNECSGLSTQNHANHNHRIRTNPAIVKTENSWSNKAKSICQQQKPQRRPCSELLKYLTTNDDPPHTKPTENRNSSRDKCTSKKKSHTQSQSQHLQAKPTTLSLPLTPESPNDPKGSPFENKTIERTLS

B1: short peptide encompassing motif L2 of PGC-1α (peptide)
chain: EAEEPSLLKKLLLAPANTQ
modifications: Peptide limits are not printed in the supplied text; 137-155 is the commonly used PGC-1α L2 peptide around motif 144-148. Termini unknown.
B2: PGC-1α RID2 (122–285) (domain or fragment, human, UniProt Q9UBK2 122-285, looked up)
chain: EASPSSMPDGTPPPQEAEEPSLLKKLLLAPANTQLSYNECSGLSTQNHANHNHRIRTNPAIVKTENSWSNKAKSICQQQKPQRRPCSELLKYLTTNDDPPHTKPTENRNSSRDKCTSKKKSHTQSQSQHLQAKPTTLSLPLTPESPNDPKGSPFENKTIERTLS
modifications: 15N-labelled in the NMR experiments
notes: PGC-1α, human, residues 122-285, holds motifs L2 and L3; also called His6-tagged PGC-1α RID2; source: cloned in pET24b; not shown: His6, N-terminal, kept
B3: PGC-1α RID1 (122–235), wild type (domain or fragment, human, UniProt Q9UBK2 122-235, looked up)
chain: EASPSSMPDGTPPPQEAEEPSLLKKLLLAPANTQLSYNECSGLSTQNHANHNHRIRTNPAIVKTENSWSNKAKSICQQQKPQRRPCSELLKYLTTNDDPPHTKPTENRNSSRDK
modifications: 15N-labelled in the NMR experiments
notes: His6 is named only for RID2; source: cloned in pET24b
B4: PGC-1α RID1 (122-235), wild type (domain or fragment, human, UniProt Q9UBK2 122-235, looked up)
chain: B3 chain
notes: for ITC, native PAGE and SEC-MALS no cleavage of the PGC-1α tag is told; 15N-labelled for NMR; source: E. coli BL21 (DE3), purified (HisTrap, SEC); not shown: His6, N-terminal, kept
B5: short peptide encompassing motif L3 of PGC-1α (peptide)
chain: QQQKPQRRPCSELLKYLTTNDD
modifications: Peptide limits are not printed in the supplied text; taken from the PGC-1α L3 peptide crystallised with ERRα (PDB 3D24, cited in the supplement). Termini unknown.
B6: ERRγ LBD (ERRγ 229–458) homodimer (domain or fragment, UniProt P62508 229-458, looked up)
chain: T2 sequence (looked up)
notes: also called ERR LBD; source: cloned in pET15b
B7: ERRα LBD (ERRα-189-423) homodimer (domain or fragment, UniProt P11474 189-423, looked up)
chain: T1 sequence (looked up)
notes: also called ERR LBD; source: cloned in pET24b
B8: ERRα LBD (189-423) homodimer with uncleaved His6 tag (domain or fragment, UniProt P11474 189-423, looked up)
chain: T1 sequence (looked up)
notes: source: cloned in pET24b

How the values were obtained:
[1] = target: ERRγ LBD (ERRγ 229-458) homodimer (UniProt P62508); test: ITC; PGC-1α RID wild type or LxxLL mutant (340-580 µM) injected into 40-70 µM ERR in the cell; 20°C; 20 mM Hepes pH 7.5, 120 mM NaCl, 0.2 % glycerol; one set of sites model
[2] = target: ERRα LBD (ERRα-189-423) homodimer (UniProt P11474); test: as above
[3] = target: B6; test: not stated; binding of short PGC-1α peptides to ERR LBDs; told only in the discussion; details: both partners purified
[4] = target: B7; test: as above; details: both partners purified
[5] = target: B8; test: native MS; ESI-TOF under non-denaturing conditions, 200 mM ammonium acetate, pH 7.4; details: both partners purified
[6] = target: B6; test: as above; details: both partners purified
[7] = target: B6; test: ITC; MicroCal iTC200, 20°C, pH 7.5, one set of sites model; apparent; details: both partners purified
[8] = target: B7; test: as above; details: both partners purified
[9] = target: T1, ERRα LBD (ERRα-189-423) homodimer; test: ITC; PGC-1α RID wild type or LxxLL mutant (340-580 µM) injected into 40-70 µM ERR in the cell; 20°C; 20 mM Hepes pH 7.5, 120 mM NaCl, 0.2 % glycerol; one set of sites model; details: both partners purified
[10] = target: T2, ERRγ LBD (ERRγ 229-458) homodimer; test: as above; details: both partners purified
[11] = target: T3, PGC-1α NTD (1–285); test: SAXS; synchrotron solution scattering (X33 DESY, SWING SOLEIL), direct injection or SEC-coupled; free proteins and complexes; details: both partners purified
[12] = target: the molecule itself; test: native MS; ESI-TOF under non-denaturing conditions, 200 mM ammonium acetate, pH 7.4
[13] = target: the molecule itself; test: SAXS; synchrotron solution scattering (X33 DESY, SWING SOLEIL), direct injection or SEC-coupled; free proteins and complexes

- stoichiometry N [1]: 0.605
- stoichiometry N [2]: 0.846
Molecule: PGC-1α RID1 L2m (LKKLL to LKKAA) (from UniProt Q9UBK2 122-235) (domain or fragment)

- stoichiometry N [1]: 0.793
- stoichiometry N [2]: 0.483
Molecule: PGC-1α RID1 L3m (LLKYL to AAKYL) (from UniProt Q9UBK2 122-235) (domain or fragment)

Molecule: B1
- Kd [3]: 1200 nM
- Kd [4]: 6100 nM

Molecule: B2
- stoichiometry N [5]: 1 PGC-1α RID2 molecule per ERR homodimer
- stoichiometry N [6]: 1 PGC-1α RID2 molecule per ERR homodimer

Molecule: B3
- Kd [7]: 53 ± 3 nM
- Kd [8]: 71 ± 6 nM

Molecule: B4
- stoichiometry N [9]: 0.94 ± 0.001
- stoichiometry N [10]: 0.932 ± 0.001

Molecule: B5
- Kd [3]: 1300 nM
- Kd [4]: 4100 nM

Molecule: B6
- binding result [11]: binds
- stoichiometry N [12]: 2

Molecule: B7
- stoichiometry N [13]: 2 and 6

Molecule: B8
- stoichiometry N [12]: 2
